Source: patent publication US20180327746, “Alpha-AMYLASE-BINDING NUCLEIC ACID MOLECULE AND USE THEREOF” (NEC Solution Innovators, Ltd., published 2018)

Tests used:
alpha-amylase [1] = biological target: T1, alpha-amylase (Homo sapiens, UniProt P0DUB6 P0DUB6:16-511); test: SPR; 400 nM amylase, 1 mM MgCl2, pH 7.4; conditions: tags: none stated; commercial human alpha-amylase, Lee Biosolutions; label: 3' poly(dA)20 captured on biotin-poly(dT)20
T1 sequence: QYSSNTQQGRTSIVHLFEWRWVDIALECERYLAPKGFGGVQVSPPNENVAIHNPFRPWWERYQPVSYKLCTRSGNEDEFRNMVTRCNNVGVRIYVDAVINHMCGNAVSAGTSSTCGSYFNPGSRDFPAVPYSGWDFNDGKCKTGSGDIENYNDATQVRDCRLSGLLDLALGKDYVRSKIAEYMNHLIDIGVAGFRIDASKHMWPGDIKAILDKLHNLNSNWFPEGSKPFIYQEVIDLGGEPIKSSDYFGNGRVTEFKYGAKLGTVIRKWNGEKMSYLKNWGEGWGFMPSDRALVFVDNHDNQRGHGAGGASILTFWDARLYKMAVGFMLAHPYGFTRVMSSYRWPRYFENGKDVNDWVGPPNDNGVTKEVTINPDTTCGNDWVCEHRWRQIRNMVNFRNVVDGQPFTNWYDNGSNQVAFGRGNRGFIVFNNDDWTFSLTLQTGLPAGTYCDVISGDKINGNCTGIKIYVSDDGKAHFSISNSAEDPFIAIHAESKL
Method: The analysis of the binding ability was carried out using a ProteON XPR36 (BioRad) in accordance with its instructions for use.
First, as a sensor chip designed specifically for the ProteON, a streptavidin-immobilized chip (trade name: ProteOn NLC Sensor Chip, BioRad) was set in the ProteON XPR36. Biotinylated poly(dT) at 5 μmol/L was injected to a flow cell of the sensor chip using ultrapure water (DDW), and the binding was allowed to proceed until the signal intensity (RU: Resonance Unit) reached about 900 RU. The biotinylated poly(dT) was prepared by biotinylating the 5′ end of 20-mer deoxythymidine. Then, the poly(dA)-added aptamer at 200 nmol/L was injected to the flow cell of the chip using an SPR buffer at a flow rate of 25 μL/min for 80 seconds, and the binding was allowed to proceed until the signal intensity reached about 800 RU. […] Subsequently, the specimen was injected using the SPR buffer at a flow rate of 50 μL/min for 120 seconds, followed by washing performed by flowing the SPR buffer under the same conditions for 300 seconds. The concentration of the human α-amylase in the specimen was set to 400 nmol/L. Signal intensity measurement was performed concurrently with the injection of the specimen and the washing with the SPR buffer. With 0 seconds being the start of the injection, the mean value of signal intensities from 115 seconds to 125 seconds was determined. […] Then, the value (B/A) obtained by dividing the protein binding measured value (B) by the aptamer immobilization measured value (A) was determined as a relative value (Relative Unit).

alpha-amylase [2] = biological target: T1, alpha-amylase; test: SPR; SPR buffer with 1 mM MgCl2, pH 7.4; Chi2 23.63; conditions: tags: none stated; commercial human alpha-amylase, Lee Biosolutions; label: 3' poly(dA)20 captured on biotin-poly(dT)20
Method: (§1) Biotinylated poly(dT) at 5 μmol/L was injected to a flow cell of the sensor chip using ultrapure water (DDW), and the binding was allowed to proceed until the signal intensity (RU: Resonance Unit) reached about 900 RU. The biotinylated poly(dT) was prepared by biotinylating the 5′ end of 20-mer deoxythymidine. Then, the poly(dA)-added aptamer at 200 nmol/L was injected to the flow cell of the chip using an SPR buffer at a flow rate of 25 μL/min for 80 seconds, and the binding was allowed to proceed until the signal intensity reached about 800 RU. […] With 0 seconds being the start of the injection, the mean value of signal intensities from 115 seconds to 125 seconds was determined. […] Then, the value (B/A) obtained by dividing the protein binding measured value (B) by the aptamer immobilization measured value (A) was determined as a relative value (Relative Unit).
(§2) The binding ability of the aptamers was analyzed by SPR in the same manner as in Example 1, except that the concentration of the α-amylase in the specimen was set to a plurality of values. The concentration was set to 20 nmol/L, 10 nmol/L, 5 nmol/L, 2.5 nmol/L, and 1.25 nmol/L. Then, from the results obtained by the SPR analysis, the kinetic parameter and the chi-squared value were calculated.

alpha-amylase [3] = biological target: T1, alpha-amylase; test: SPR; SPR buffer with 1 mM MgCl2, pH 7.4; Chi2 5.18; conditions: tags: none stated; commercial human alpha-amylase, Lee Biosolutions; label: 3' poly(dA)20 captured on biotin-poly(dT)20
Method: as §1, §2

alpha-amylase [4] = biological target: T1, alpha-amylase; test: SPR; 40 mM HEPES pH 7.4, 125 mM NaCl, 5 mM KCl, 1 mM MgCl2, 0.01% Tween 20; Chi2 2.68; conditions: tags: none stated; commercial human alpha-amylase, Lee Biosolutions; label: 3' poly(dA)20 captured on biotin-poly(dT)20
Method: as §1, §2

alpha-amylase [5] = biological target: T1, alpha-amylase; test: capillary electrophoresis; 200 nM aptamer, 2 uM amylase, 1 mM MgCl2; conditions: tags: none stated; commercial human alpha-amylase, Lee Biosolutions; label: 5' TYE665
Method: (§3) Reaction solutions containing the labeled aptamer (SEQ ID NO: 1) were prepared. Each of the reaction solutions was subjected to CAE under the following conditions. The reaction solution was caused to migrate while separating the components therefrom, and the fluorescence at a maximum absorption wavelength (665 nm) of the fluorescent substance was measured. As the reaction solutions, the following four types of reaction solutions were used: a reaction solution 1 containing the labeled aptamer only; a reaction solution 2 containing the labeled aptamer and the α-amylase; a reaction solution 3 containing the labeled aptamer and the saliva; and a reaction solution 4 containing the labeled aptamer as the negative control and the saliva. In each of the reaction solutions, the concentration of the labeled aptamer was 200 nmol/L. In the reaction solution 2, the concentration of the α-amylase was 2 μmol/L. In the reaction solutions 3 and 4, the concentration of the saliva was 10%. The reminder of each of the reaction solutions was a buffer solution. The composition of the buffer solution was as follows: 40 mmol/L HEPES (pH 7.5), 125 mmol/L NaCl, 5 mmol/L KCl, and 1 mmol/L MgCl₂.
(§4) Preparation of the reaction solution 2 and the binding ability analysis by CAE were carried out in the same manner as in the above item (3), except that the labeled aptamers (SEQ ID NOs: 1, 2, 3, and 19) were used. Further, in order to examine the specificity of the labeled aptamers to the α-amylase, the binding ability analysis by CAE was performed in the same manner as in the case where the above-described reaction solution 2 was used, except that, instead of the α-amylase, human chromogranin A (CgA, recombinant full length protein, Creative BioMart, #CHGA-26904TH) or human IgA (secretory, Biomedicals, LLC-Cappel Products, #55905), each having a His-tag fused at the N terminus were used.

chromogranin A (CgA) = biological target: T2, chromogranin A (CgA) (Homo sapiens, UniProt P10645 P10645:19-457); test: capillary electrophoresis specificity control; conditions: tags: N-terminal His-tag; full length, Creative BioMart CHGA-26904TH; label: 5' TYE665
T2 sequence: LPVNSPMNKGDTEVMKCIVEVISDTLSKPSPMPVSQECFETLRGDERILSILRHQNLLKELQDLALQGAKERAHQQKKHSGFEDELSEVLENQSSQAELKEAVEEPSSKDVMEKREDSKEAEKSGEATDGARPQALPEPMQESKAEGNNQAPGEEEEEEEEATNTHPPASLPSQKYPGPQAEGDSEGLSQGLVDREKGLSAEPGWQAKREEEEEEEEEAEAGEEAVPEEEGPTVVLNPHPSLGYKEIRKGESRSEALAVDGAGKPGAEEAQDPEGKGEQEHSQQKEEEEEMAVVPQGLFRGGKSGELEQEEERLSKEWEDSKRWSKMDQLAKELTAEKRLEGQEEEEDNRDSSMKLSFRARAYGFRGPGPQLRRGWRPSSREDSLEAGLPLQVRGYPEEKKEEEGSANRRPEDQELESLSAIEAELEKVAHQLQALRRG
Method: as §3, §4

alpha-amylase [6] = biological target: T1, alpha-amylase; test: SPR; SPR buffer with 1 mM MgCl2, pH 7.4; Chi2 24.85; conditions: tags: none stated; commercial human alpha-amylase, Lee Biosolutions; label: 3' poly(dA)20 captured on biotin-poly(dT)20
Method: as §1, §2

alpha-amylase [7] = biological target: T1, alpha-amylase; test: SPR; SPR buffer with 1 mM MgCl2, pH 7.4; Chi2 5.69; conditions: tags: none stated; commercial human alpha-amylase, Lee Biosolutions; label: 3' poly(dA)20 captured on biotin-poly(dT)20
Method: as §1, §2

alpha-amylase [8] = biological target: T1, alpha-amylase; test: SPR; SPR buffer with 1 mM MgCl2, pH 7.4; Chi2 29.33; conditions: tags: none stated; commercial human alpha-amylase, Lee Biosolutions; label: 3' poly(dA)20 captured on biotin-poly(dT)20
Method: as §1, §2

alpha-amylase [9] = biological target: T1, alpha-amylase; test: SPR; SPR buffer with 1 mM MgCl2, pH 7.4; Chi2 17.73; conditions: tags: none stated; commercial human alpha-amylase, Lee Biosolutions; label: 3' poly(dA)20 captured on biotin-poly(dT)20
Method: as §1, §2

alpha-amylase [10] = biological target: T1, alpha-amylase; test: SPR; SPR buffer with 1 mM MgCl2, pH 7.4; Chi2 18.8; conditions: tags: none stated; commercial human alpha-amylase, Lee Biosolutions; label: 3' poly(dA)20 captured on biotin-poly(dT)20
Method: as §1, §2

B1: Amy_258KK10R8m3 (ssDNA)
DNA: GGTTACGCCCAGGACACATTTCAGAGCGTAAACAGTCCTGGTTGGCAAATGTGTAAGCTCGGTCTCCTCGGATAATCAAAAAAAAAAAAAAAAAAAA
modifications: KK10 modified T (formula 2) at double-underlined T, i.e. T 3' of the 5' primer region
binding result (alpha-amylase [1]): binds

B2: AML1243KR8m3s63 (ssDNA)
DNA: GGATACCTTAACGCCGCCTATTGCGAGGTGTGGCTAGTCGTTATAGGTCCACCGAGTTGCACCAAAAAAAAAAAAAAAAAAAA
modifications: KS9 modified T (formula 1) at underlined T, i.e. T 3' of the 5' primer region
Kd (alpha-amylase [2]): 16.4 nM

B3: AML1243KR8m1s65_FW_s15 (ssDNA)
DNA: TAACGCCGCCTATTGTGAACGACGTGAATAGTGTTTGTGGGTCCGGAGTTGCACCCGAAAAAAAAAAAAAAAAAAAA
modifications: KS9 modified T (formula 1) at underlined T, i.e. T 3' of the 5' primer region
Kd (alpha-amylase [3]): 0.447 nM

B4: AML1243KR8m1s58_FW_s15 (ssDNA)
DNA: TAACGCCGCCTATTGTGAACGACGTGAATAGTGTTTGTGGGTCCGGAGTTAAAAAAAAAAAAAAAAAAAA
modifications: KS9 modified T (formula 1) at underlined T, i.e. T 3' of the 5' primer region
Kd (alpha-amylase [4]): 0.358 nM

B5: TYE665-Amy_258KK10R8m2 (ssDNA)
DNA: GGTTACGCCCAGGACACATTTCATTGATGGCATACTAAGGGTCGAGGAATTCGTAAGCTCGGTCTCCTCGGATAATC
modifications: KK10 modified T (formula 2) at double-underlined T, i.e. T 3' of the 5' primer region
binding result (alpha-amylase [5]): binds | binding result (chromogranin A (CgA)): no binding

B6: AML1243KR8m2s49Fw_s20 (ssDNA)
DNA: TACCTTAACGCCGCCTATTGCTATGAGTAGTGTTTGTAGGTCTGGCAAAAAAAAAAAAAAAAAAAA
modifications: KS9 modified T (formula 1) at underlined T, i.e. T 3' of the 5' primer region
Kd (alpha-amylase [6]): 4.23 nM

B7: AML1243KR8m5 (ssDNA)
DNA: GGATACCTTAACGCCGCCTATTGAGTTCAACAATGACTAGTGTTTGTCGGTCTGAGTTGCACCCGTCTCGAAATCAAAAAAAAAAAAAAAAAAAA
modifications: KS9 modified T (formula 1) at underlined T, i.e. T 3' of the 5' primer region
binding result (alpha-amylase [1]): binds

B8: Amy_258KK10R8m4 (ssDNA)
DNA: GGTTACGCCCAGGACACATTTCTGTAGTGAAGTCCTGGTTGGCAAATTCATGGTAAGCTCGGTCTCCTCGGATAATCAAAAAAAAAAAAAAAAAAAA
modifications: KK10 modified T (formula 2) at double-underlined T, i.e. T 3' of the 5' primer region
Kd (alpha-amylase [7]): 7.34 nM

B9: AML1243KR8m3s63Fw_s20 (ssDNA)
DNA: TACCTTAACGCCGCCTATTGCGAGGTGTGGCTAGTCGTTATAGGTCCACCGAGTTGCACCAAAAAAAAAAAAAAAAAAAA
modifications: KS9 modified T (formula 1) at underlined T, i.e. T 3' of the 5' primer region
Kd (alpha-amylase [8]): 16.6 nM

B10: AML2243KR8m3 (ssDNA)
DNA: GGATACCTTAACGCCGCCTATTGGTGTCACTAGTGTTTGTCGGTGCCAGCAAGGAGTTGCACCCGTCTCGAAATCAAAAAAAAAAAAAAAAAAAA
modifications: KS9 modified T (formula 1) at underlined T, i.e. T 3' of the 5' primer region
binding result (alpha-amylase [1]): binds

B11: TYE665-AML1243KR8m3 (ssDNA)
DNA: GGATACCTTAACGCCGCCTATTGCGAGGTGTGGCTAGTCGTTATAGGTCCACCGAGTTGCACCCGTCTCGAAATC
modifications: KS9 modified T (formula 1) at underlined T, i.e. T 3' of the 5' primer region
binding result (alpha-amylase [5]): binds | binding result (chromogranin A (CgA)): no binding

B12: AML1243KR8m2s63 (ssDNA)
DNA: GGATACCTTAACGCCGCCTATTGCTATGAGTAGTGTTTGTAGGTCTGGCATGCGAGTTGCACCAAAAAAAAAAAAAAAAAAAA
modifications: KS9 modified T (formula 1) at underlined T, i.e. T 3' of the 5' primer region
Kd (alpha-amylase [9]): 3.93 nM

B13: AML1243KR8m2s49 (ssDNA)
DNA: GGATACCTTAACGCCGCCTATTGCTATGAGTAGTGTTTGTAGGTCTGGCAAAAAAAAAAAAAAAAAAAA
modifications: KS9 modified T (formula 1) at underlined T, i.e. T 3' of the 5' primer region
Kd (alpha-amylase [10]): 3.19 nM

B14: AML1243KR8m4 (ssDNA)
DNA: GGATACCTTAACGCCGCCTATTGATTCTCTGTGACTAGTGTTTGTAGGTCGCAGAGTTGCACCCGTCTCGAAATCAAAAAAAAAAAAAAAAAAAA
modifications: KS9 modified T (formula 1) at underlined T, i.e. T 3' of the 5' primer region
binding result (alpha-amylase [1]): binds

B15: TYE665-AML1243KR8m2 (ssDNA)
DNA: GGATACCTTAACGCCGCCTATTGCTATGAGTAGTGTTTGTAGGTCTGGCATGCGAGTTGCACCCGTCTCGAAATC
modifications: KS9 modified T (formula 1) at underlined T, i.e. T 3' of the 5' primer region
binding result (alpha-amylase [5]): binds | binding result (chromogranin A (CgA)): no binding
